# From patent publication US20260167703A1
# Assays:
# [1] = molecular target: DENV-2 E protein Domain III (Dengue virus serotype 2, strain Thailand/16681/1984); test: BLI, mAb on AR2G biosensor, 20 ug/mL Domain III, 1200 sec
# [2] = molecular target: DENV-2 VLP (Dengue virus serotype 2, strain Thailand/16681/84); test: Luminex, VLP-coupled beads
# [3] = molecular target: Dengue Virus Serotype 2 envelope protein (Dengue virus serotype 2, strain Thailand/16681/84); test: Luminex bead assay (antigen on MagPlex beads, MFI)
# [4] = molecular target: DENV-4 E protein Domain III (Dengue virus serotype 4, strain Indonesia/1036/1976); test: BLI, mAb on AR2G biosensor, 20 ug/mL Domain III, 1200 sec
Substance,Response (nm) [1],EC50 [2],EC50 (read off the curve) [3],Response (nm) [4]
3H5 (antibody),0.488 nm,–,–,–
777-2 (DV2-3H5) (antibody),0.303 nm,0.0749 µg/mL,0.06 µg/mL,–
4G2 (antibody),0.0174 nm,–,–,0.056 nm
